Experimental data published in the DeepSol protein solubility set.

assay: soluble on expression in E. coli; label from the status in PepcDB or PDB records

Row | Sequence | soluble on expression in E. coli
1 | MSLTYYLSIDYGGTNTKALIFDKLGHQIAVSSFETLKNETQSGHRQVNLVKTWNAITSAIREVIQISKLSPEQISAVACIGHGKGLYLLDNKLEPLEQGILSTDNRAKDLAQYFESKLDNIWELTRQHIFPSQSPVILRWLKDYQPETYKSIGAVLSAKDFIRYKLTGKVQQEYGDASGNHWINFQTGTYDPAILDFFGIREIENSLPELIDSADLVPGGISSQAAKETGLVEGTPVVGGLFDIDACALGSGVLESDTFSVISGTWNINTYPSLKPAKQDSGLMTSYFPDRRYLLEASSPTSAGNLNFMLKMLMHQEIDNAKSSGGSIYDNLEEFLTHTDATHHGLIFFPFLYGSNTSQDASACFFGLTTKSTKSQMIRAVYEGIAFAHKQHITDLIKSRGSVPKIIRFSGGATNSPAWMQMFSDILNFPIETVEGTELGGLGGAILARHALDKISLKEAVQDMVRVKAIYKPQLSEVKGYKKKYHAYQKLLETLDPIWSELGHLNEGHHHHHH | soluble
2 | MSLVAMITTVVGSYPVVKKEETFLDKVKKVFGLYDEYKYAIERAVKDQVKAGVNIISDGQVRGDMVEIFTNNMYGFDGKRVVGRVEFIKPITLKDILYAKSIAKKLNPNVEIKGIITGPCTIASSVRVESCYSDNRDENLIYDIAKALRKEVEALKKHVPIIQIDEPILSTGMYDFDVARKAIDIIVDGLNIKFAMHVCGNVYNIIDELNKFNVDILDHEFASNKKNLVILESMEKKVGFGCVNTKVKKVESVEEIKSLIEEGIEILKNNEKLNKNLSDNILIDPDCGMRLLPIDVAFNKLKNMVEATKLIEGHHHHHH | soluble
3 | MSLVEQLVKELSKGLNTRDYPEGFFKEHLAFRLKINKLEPVKHPHIPDINSLLGVEKQKEVLLRNTAQFVKGLPANDVLLWGARGTGKSSLVKALLGVFGKEGLRIVQVTKHEIPELADLYEVLRDKEEKFILFFDDLTFEPHEDAFRLLKSIMEGDVEERPQNVLFTQLQTGDTSLRIWKKRINFRRKHSTKSFL | not soluble
4 | MSLVETPKCTCGNHGVMNKKEKIIFACSGASNVGELSNAAAVRLTKEGFGNKACTASLAIKTPSVMERVENAGEIVVIDGCPVSCAKRIADNSGVKVDQYIIITELGINKISDMDILDEDITKTVSAVKDGKSVCLDRKRENHKGSGCNCGCESKEGHHHHHH | not soluble
5 | MSLVHNPDNTKLSDATFVIFDIETTGLHGRYDDVIEFSARKIKNNSEIDHQQFFLKIDKPIPKTITEITKITDEMLEGGIDQQQGLEKIRNYLDDCVMVAHNGINFDLPFLQTQFEKYNIKPLTNPLIDTLCLSWALNPLFSSHTLSNICSKLKLEFDDERLHRAEYDTEALKKVFFYFKKQLKEMGINTLTEIDQNLNKKCQIDLMKRVFTNTAIVYVKNQRGFQNLYEMLSIALTDHNANRPLVLASSLAKFRKSFLLTENPVQGDIFKAALTKPINELEKAIEKVDFVLISQPNAYLGYTLREGLKKELINDAIKLVIKTATKLKKLVAVASDAYFIHPWENEYYKAIVCAKGLGGKWHRHFNNKEKEQTVPEVFLHTTDEMLKRMSFLGEDIAYKLVVENTNKIVKLLDLNELVPTKNKLYPPVMQDSNQKLIDKTWKQAEKRYGKNLPKLIKERIEKEEGHHHHHH | soluble
6 | MSLVLKCSLCINDERITKILTVNGRPICKECKAFLEHPPDKIKIRKELEELLSQVDKAIVAYSGGKDSTVALYLAKEEYDIDVEAVMVDHGFMAPQAIENAKKVSEYLNVPLTIIREDYSEIFKDALLKAKSPCRKCSRRTMEALRKYALEKGYKYIISGHELPFGHHPYRLMSGGIIQIRLLSLMSEKERMEILKKLPFKLPELPGYTSNCLILGPALERYWEKHGYSFEHRRIAALVRYGLLDREKALKKVEKPKVPEWQWELVEKKLNLIVRSLEGHHHHHH | soluble
7 | MSLVTLKDIAAEAGVSIMTVSNVINGNHSKVSKNTIEKIEKIIQKYNYVPNLTARSLTAKSSKIIGIIVPIKGSFNNLFKDPYISELFGIIQNVVRENGYYLMVRSVKDVSDISALLKNWNMDGAIFLMPDYDNLIYSILKENKLPMVFLDSYSKIDNIISVGINDYKGGYIATRYLINNGHRKILFAGPCHKDGIPIPQIIKRLEGYKDALLESNIEFNESLIVDVEPNYEVGINLGRSICNKEFDVTAVFTTADIMGIGIIEGAKLNGKIVPNDLSVIGFDNLLPSVYVTPKLTTISQDIESKATKAVDLLIEYIEKGSVSNNKITLDVELVERQSVGQLSNEGHHHHHH | soluble
8 | MSLYGKRLVVFAPLYVSNYCVNNCTYCGYKHCNDELKRKKLNKEQLIEEVKVLESLGHKRIALEAGEDPVNAPLDYILDCIKSIYSIKFDNGSIRRINVNIAATSVEDYKRLKDAEIGTYILFQETYHKPTYERLHVSGPKHNYNYHTTAMHRAREAGIDDIGMGVLYGLYDYKYETLAMLMHAMDLEETTGVGPHTLSVPRIRPAENVSLENYPYLVDDEDFKKIVAILRLAVPYAGLILSTREEPGLRDEIIALGVSQVSTGSCTGVGGYSESYIDPEEKPQFEVGDHRSPVEMIESLMEAGYIPSYCTACYREGRTGERFMDIVKSGELYKICEANALITLKEFIDDYGTDRTREIGDKLIKKSIDEIDNESFRKSVEEKINKISNGTRDLRFEGHHHHHH | not soluble
9 | MSLYIHQTACISAQPAFADPASDHVAAAVDNKLYAIDSNYDSIPPNVLRRLGKAVKMGIATGHSLISKHPVDGIVLGTANGGLEDCIKFLNQIIEFEEGRLTPTNFVQSTTNAIAGQLGIMSSNKGYNITHVHRGLAFENALIDIEMLLNEYPSNTYLLGGVDEISAYNYTIEKLAGTYKSETISSAQLFSSQTTGTIAGEGAAMFLVNTNRLNAAAAIKGIKTYNNPSPEAIKKHLEDFLAKHLPQNEKIDVLFSGKNGDVCLNSFYEVCAQQLGKETTVCYYKQLTGDFPTVTALALWFATRFIEDSNNLPVLNIKKTGAVKNILLYNTYKGYQHSFILVSEGHHHHHH | not soluble
10 | MSLYQHGYHAGNFADVIKHITLTRLLAYLTHKDKPLFYLETHSGRGIYDLKDKQSLKTEEYKEGINPVWLDRENLPSLFLEYISVIKQINLNSTLSYYPGSPYFAINQLRSQDRLYLCELHPTEYNFLLKLPHFNKKVYVNHTDGVSKLNALLPPPEKRGLIFIDPSYERKEEYKEIPYAIKNAYSKFSTGLYCVWYPVVNKAWTEQFLRKMREISSKSVRIELHLNPLINEGMTGCGLWIINPPYTFPSEIKLVLETLTTYFNPGSSSYMIESGSKLCHGLKGIITITTDPNSSSVDKLAAALEHHHHHH | soluble
11 | MSLYQLEDDSLMLHNDLYQINMAESYWNDNIHEKMAVFDLYFRKMPFNSGYAVFNGLKRVIDFIEHFGFSESDLEYLKSIGYKDDFLSYLKDLKFTGSIRSMQEGELCFGNEPLLRVEAPLIQAQLIETILLNIVNFHTLITTKASRIRQIASNDKLMEFGTRRAQEIDAALWGARAAYIGGFDSTSNVRAGKLFGIPVSGTHAHAFVQTYGDEYVAFKKYAERHKNCVFLVDTFHTLKSGVPNAIKVAKELGDKINFVGIRLDSGDIAYLSKEARRMLDEAGFTETKIIASNDLDEETITSLKAQGAKVDSWGVGTKLITGYDQPALGAVYKLVAIENEEGSYSDRIKLSNNAEKVTTPGKKNVYRIINKKTGKAEGDYITLENENPYDEQPLKLFHPVHTYKMKFIKSFEAIDLHHNIYENGKLVYQMPTEDESREYLAQGLQSIWDENKRFLNPQEYPVDLSKACWDNKHKRIFEVAEHVKEMEEDNEEGHHHHHH | soluble
12 | MSLYRVFEALDELSAIVEEARGVPMTAGCVVPRGDVLELIDDIKDAIPGELDDAQDVLDARDSMLQDAKTHADSMVSSATTEAESILNHARTEADRILSDAKAQADRMVSEARQHSERMVADAREEAIRIATAAKREYEASVSRAQAECDRLIENGNISYEKAVQEGIKEQQRLVSQNEVVAAANAESTRLVDTAHAEADRLRGECDIYVDNKLAEFEEFLNGTLRSVGRGRHQLRTAAGTHDYAVREGHHHHHH | soluble
13 | MSLYTFKELKRATKQDTVSLPKLKVALLGDTATQLLATAIKGEGILRNYNIELWEAEYNQVERQIMDPTSDYYQFEPDYTIIFHSTHKLLEKHSLVNSDLQNKLADDRLDFVRLLCEQGIGRVIYYNYPEIEDTIWGSYATKVQSSFTYQLTKLNYELMNISQAYPNFFICNLAGISAKYGRNFMFDSSVYVNTEIILSLDALPIISSRTIDIIAAIQGKFKKCLILDLDNTIWGGVVGDDGWENIQVGHGLGIGKAFTEFQEWVKKLKNRGIIIAVCSKNNEGKAKEPFERNPEMVLKLDDIAVFVANWENKADNIRTIQRTLNIGFDSMVFLDDNPFERNMVREHVPGVTVPELPEDPGDYLEYLYTLNLFETASFSEDDKDRTKQYQIEAKRVSLQQSFTNEAEFLKSLDMVSEVKGFDKFNTPRVAQLSQRSNQFNLRTVRYTEAEIAAIESDLHYATFSFTLADRFGDNGLICVIILEKQDTETLFINTWFMSCRVLKRGMENFTLNTLVDYARSNGFKRFIGEYLPSAKNQMVEEHYPHLGFSKMEGGDNAARYVLDVEEGHHHHHH | not soluble
14 | MSLYVSKLFTSQQWRELKLISYVTENADAIGVKDKELSKALNISMLTLQTCLTNMQFMKEVGGITYKNGYITIWYHQHCGLQEVYQKALRHSQSFKLLETLFFRDFNSLEELAEELFVSLSTLKRLIKKTNAYLTHTFGITILTSPVQVSGDEHQIRLFYLKYFSEAYKISEWPFGEMLNLKNCERLLSLMIKEVDVRVNFTLFQHLKILSSVNLIRYYKGYSAVYDNKKTSHRFSQLIQSSLEIQDLSRLFYLKFGLYLDETTIAEMFSNHVNDQLEIGYAFDSIKQDSPTGCRKVTNWVHLLDELEIRLNLSVTNKYEVAVILHNTTVLKEEDITANYLFFDYKKSYLNFYKQEHPHLYKAFVAGVEKLMRSEKEPISKELTNQLIYAFFITWENSFLKVNQKDEKIRLLVIERSFNSVGNFLKKYIGEFFSITNFNELDALTIDLEEIEKQYDVIVTDVMVGKSDELEIFFFYKMIPEAIIDKLNCVFKHQLCRQEGHHHHHH | not soluble
15 | MSMKGKETMSKQNEKLVVGKLGSSYGIRGWLKVFSYTDNPESIFDYSPWYIDQKGEWVEYKVEGWKRHNKGWVVKLQGLDVREDAHLLTNFEIAIDPASLPELSEDEFYWRELFGMQVVTTNGYDLGVVTDMMETGSNDVLVVKANLKDAFGQKERLIPFLEEQVIKVVDRQAQRIEVDWDPAF | soluble
16 | MSMKTTQEINKEDEELCNESKKFMDVYYDVMDRKREKIGFLYTQVSNAVWNGNPINGYDSICEFMKALPSTQHDIQSLDAQRLPEGVTGDMSGGMLLNVAGAVTVDGDSKRAFTQTLLLGVEDGKYKVKSDRFRYVD | not soluble
17 | MSNFEKKYILELNDALSHLNHNSTSFDLLKVLISWLSNDIVIDKFKILGYDFSKYIEMNPDDYPVEKSILNREEIIYLKNNIYRKISSGNFKFQYFVQYIRDILEYLFIEHIERVCPYCEWGEMQKLEEQNTHETVYLCTQCGCAFYNDNSQFLLKTPLTIPMKRDEFK | not soluble
18 | MSNHQVALQFEDGVTRFICIAQGETLSDAAYRQQINIPMDCREGECGTCRAFCESGNYDMPEDNYIEDALTPEEAQQGYVLACQCRPTSDAVFQIQASSEVCKTKIHHFEGTLARVENLSDSTITFDIQLDDGQPDIHFLAGQYVNVTLPGTTETRSYSFSSQPGNRLTGFVVRNVPQGKMSEYLSVQAKAGDKMSFTGPFGSFYLRDVKRPVLMLAGGTGIAPFLSMLQVLEQKGSEHPVRLVFGVTQDCDLVALEQLDALQQKLPWFEYRTVVAHAESQHERKGYVTGHIEYDWLNGGEVDVYLCGPVPMVEAVRSWLDTQGIQPANFLFEKFSAN | soluble
19 | MSNPLFPTESAALTLDGPVGPLDVAVDLPEPDVAVQPVTAIVCHPLSTEGGSMHNKVVTMAARALRELGITVVRFNFRSVGTSAGSFDHGDGEQDDLRAVAEWVRAQRPTDTLWLAGFSFGAYVSLRAAAALEPQVLISIAPPAGRWDFSDVQPPAQWLVIQGDADEIVDPQAVYDWLETLEQQPTLVRMPDTSHFFHRKLIDLRGALQHGVRRWLPATP | soluble
